# In article PMC12305242, “Native Top–Down Analysis of Membrane Protein Complexes Directly From In Vitro and Native Membranes” (Molecular & Cellular Proteomics : MCP, 2025):
# T1: dihydrolipoyl dehydrogenase (DLDH) (Escherichia coli, UniProt P0A9P0)
# T1 construct: gene lpdA; endogenous, untagged, ejected from native E. coli BL21 membrane vesicles
# T1 sequence (P0A9P0 2-474): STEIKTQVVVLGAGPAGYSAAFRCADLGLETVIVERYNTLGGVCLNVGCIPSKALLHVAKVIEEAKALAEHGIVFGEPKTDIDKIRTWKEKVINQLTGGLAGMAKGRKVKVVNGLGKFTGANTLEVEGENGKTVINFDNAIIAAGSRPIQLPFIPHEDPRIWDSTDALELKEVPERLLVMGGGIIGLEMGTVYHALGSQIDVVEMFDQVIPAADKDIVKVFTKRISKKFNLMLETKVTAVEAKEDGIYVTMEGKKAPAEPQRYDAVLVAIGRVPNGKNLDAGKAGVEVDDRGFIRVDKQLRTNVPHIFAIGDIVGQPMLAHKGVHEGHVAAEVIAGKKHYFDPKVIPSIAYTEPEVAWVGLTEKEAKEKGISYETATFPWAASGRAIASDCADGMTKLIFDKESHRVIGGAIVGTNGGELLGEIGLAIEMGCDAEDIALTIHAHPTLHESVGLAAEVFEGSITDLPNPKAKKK
# T2: AqpZ, P60844
# T2 chain: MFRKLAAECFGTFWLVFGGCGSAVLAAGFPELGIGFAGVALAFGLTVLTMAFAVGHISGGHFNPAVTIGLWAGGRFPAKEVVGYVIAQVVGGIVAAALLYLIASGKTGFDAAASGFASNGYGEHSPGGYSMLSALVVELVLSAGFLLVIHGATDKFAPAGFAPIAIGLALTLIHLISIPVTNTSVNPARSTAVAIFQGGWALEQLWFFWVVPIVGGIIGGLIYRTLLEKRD
# B1: dihydrolipoyl dehydrogenase (enzyme, UniProt P0A9P0 1-474, looked up)
# chain: MSTEIKTQVVVLGAGPAGYSAAFRCADLGLETVIVERYNTLGGVCLNVGCIPSKALLHVAKVIEEAKALAEHGIVFGEPKTDIDKIRTWKEKVINQLTGGLAGMAKGRKVKVVNGLGKFTGANTLEVEGENGKTVINFDNAIIAAGSRPIQLPFIPHEDPRIWDSTDALELKEVPERLLVMGGGIIGLEMGTVYHALGSQIDVVEMFDQVIPAADKDIVKVFTKRISKKFNLMLETKVTAVEAKEDGIYVTMEGKKAPAEPQRYDAVLVAIGRVPNGKNLDAGKAGVEVDDRGFIRVDKQLRTNVPHIFAIGDIVGQPMLAHKGVHEGHVAAEVIAGKKHYFDPKVIPSIAYTEPEVAWVGLTEKEAKEKGISYETATFPWAASGRAIASDCADGMTKLIFDKESHRVIGGAIVGTNGGELLGEIGLAIEMGCDAEDIALTIHAHPTLHESVGLAAEVFEGSITDLPNPKAKKK
# notes: dihydrolipoyl dehydrogenase (DLDH, gene lpdA), E. coli BL21, endogenous peripheral membrane protein; also called DLDH; lpdA; source: endogenous, E. coli BL21 membrane vesicles (N2 cavitation)
# B2: semiSWEET (natural protein)
# chain: MALIERIGKALEPLMLVMGLISPLATMPQLYKLYVSHSEHALGLSLTTWLLYSFIALLWTIYGIYHKNPTIWVGNCLGFLMYVAMVVGIIAHTGGTY
# B3: AqpZ, P60844 1-231 (natural protein)
# chain: T2 chain
# Columns and labels:
# [1] = target: T3, β-barrel–assembly machinery (BAM) complex (Escherichia coli, UniProt P0A940); assay: native MS of membrane vesicles, complex-up (HCD) of bound species; type: binding; conditions: 100 uM MRL-494, 1 h on ice, native E. coli membrane vesicles; bound to the complex, subunit not resolved
# T3 construct: gene bamA; endogenous, untagged heteropentamer BAM-ABCDE, lipidated proteoforms, about 199 kDa, ejected from native E. coli BL21 membrane vesicles; with Outer membrane protein assembly factor BamB; Outer membrane protein assembly factor BamC; Outer membrane protein assembly factor BamD; Outer membrane protein assembly factor BamE
# [2] = target: T1, dihydrolipoyl dehydrogenase (DLDH); assay: native MS complex-up (HCD), mass shift of ejected monomer; type: binding; conditions: endogenous ligand, native E. coli membrane vesicles; ligand identified by added mass and database search
# [3] = target: the molecule itself; assay: native MS; endogenous complexes ejected from E. coli BL21 native membrane vesicles (500 mM NH4Ac, 300 ug/ml protein, 5% (v/v) glycerol as supercharger), in-source activation; quadrupole isolation and complex-up analysis by HCD/CID; no detergent
# [4] = target: the molecule itself; assay: native MS; purified protein reconstituted into proteoliposomes (E. coli Polar Lipid Extract, 200 mM NH4Ac), 0.1% (v/v) 3-nitrobenzyl alcohol as supercharger, ejected by in-source activation; protein 2 to 10 uM; Q Exactive UHMR
# [5] = target: T2, AqpZ, P60844; assay: as above; conditions: remark: other sources report otherwise
molecule,measurement,setting,value
NC(N)=NC(=O)CC(Nc1nc(N=C(N)N)nc(NC2CCC(NC(=O)Cn3nnc(-c4ccc(F)cc4)n3)CC2)n1)C1CC1 (centres unmarked) [MRL-494],"native MS of membrane vesicles, complex-up (HCD) of bound species",[1],The results provide direct evidence for MRL-494 BAM complex interaction
Cc1cc2nc3c(=O)[nH]c(=O)nc-3n(C[C@H](O)[C@H](O)[C@H](O)COP(=O)(O)OP(=O)(O)OC[C@H]3O[C@@H](n4cnc5c(N)ncnc54)[C@H](O)[C@@H]3O)c2cc1C [flavin adenine dinucleotide],"native MS complex-up (HCD), mass shift of ejected monomer",[2],"identified the ligand as flavin adenine dinucleotide, an endogenous cofactor of DLDH"
B1,stoichiometry N,[3],2
B2,stoichiometry N,[4],2
B3,stoichiometry N,[5],4
